{"source": "patent US6623741", "binders": {"B1": {"name": "T1623 (peptide)", "peptide": "SGVAVSKVLHLEGEVNKIKSALLSTNKAVVSLSNGVSVLTSKVLDLKNYIDKQL", "modifications": "not checked"}, "B2": {"name": "T1584 (peptide)", "peptide": "AVSKVLHLEGEVNKIKSALLSTNKAVVSLSNGVSVLTSKVLDLKNYIDKQL", "modifications": "not checked"}}, "key": {"[1]": {"molecular_target": "T1581 (respiratory syncytial virus (strain A2))", "assay": "sedimentation equilibrium, 35 µM peptide (self-association)"}, "[2]": {"molecular_target": "T1581 (respiratory syncytial virus (strain A2))", "assay": "sedimentation equilibrium, 35 µM peptide, single ideal species fit (self-association); monomer 5007"}, "[3]": {"molecular_target": "T1623 (respiratory syncytial virus (strain A2))", "assay": "sedimentation equilibrium, 35 µM peptide (self-association)"}, "[4]": {"molecular_target": "T1623 (respiratory syncytial virus (strain A2))", "assay": "sedimentation equilibrium, 35 µM peptide, single ideal species fit (self-association); monomer 5750"}, "[5]": {"molecular_target": "T1584 (respiratory syncytial virus (strain A2))", "assay": "sedimentation equilibrium, 35 µM peptide (self-association)"}, "[6]": {"molecular_target": "T1584 (respiratory syncytial virus (strain A2))", "assay": "sedimentation equilibrium, 35 µM peptide, single ideal species fit (self-association); monomer 5506"}, "[7]": {"molecular_target": "T1772 (respiratory syncytial virus (strain A2))"}, "[8]": {"molecular_target": "T1772 (respiratory syncytial virus (strain A2))", "assay": "sedimentation equilibrium (self-association)"}, "[9]": {"molecular_target": "T1772 (respiratory syncytial virus (strain A2))", "assay": "sedimentation equilibrium, value at 25 µM, single ideal species fit (self-association); monomer 5393"}, "[10]": {"molecular_target": "T1582 (respiratory syncytial virus (strain A2))", "assay": "sedimentation equilibrium, 35 µM peptide (self-association)"}, "[11]": {"molecular_target": "T1582 (respiratory syncytial virus (strain A2))", "assay": "sedimentation equilibrium, 35 µM peptide, single ideal species fit (self-association); monomer 4897"}, "[12]": {"molecular_target": "T1772 (respiratory syncytial virus (strain A2))", "remark": "listed apart in the source"}, "[13]": {"molecular_target": "T1772 (respiratory syncytial virus (strain A2))", "remark": "listed apart in the source"}, "[14]": {"molecular_target": "T112 (respiratory syncytial virus (strain A2))"}, "[15]": {"molecular_target": "T1772 (respiratory syncytial virus (strain A2))", "remark": "listed apart in the source"}, "[16]": {"molecular_target": "T1772 (respiratory syncytial virus (strain A2))", "remark": "listed apart in the source"}, "[17]": {"molecular_target": "T1, MF-IV (MF5.1): E. coli maltose binding protein fused to RSV F protein residues 142-302 (E. coli; respiratory syncytial virus (strain A2)), P03420", "T1 chain": "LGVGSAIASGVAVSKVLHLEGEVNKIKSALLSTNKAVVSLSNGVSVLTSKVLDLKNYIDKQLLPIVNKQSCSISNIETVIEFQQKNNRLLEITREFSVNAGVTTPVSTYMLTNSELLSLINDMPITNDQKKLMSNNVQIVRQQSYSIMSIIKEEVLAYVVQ"}, "[18]": {"molecular_target": "T1, MF-IV (MF5.1): E. coli maltose binding …", "assay": "competitive binding assay (B50) on the MF5.1 fusion protein; reference T112"}}, "note": "“And” between values parts separate entries of the source, which are not always exact repeats. Identical values can stand only once. Like-named read-outs stand apart in the source and are kept apart here."}
{"binder": "VLHLEGEVNKIKSALLSTNKAVVSLSNGVSVLTSKVLDLKNYIDKQ (modifications not checked)", "note": "[T1581]", "values": [{"measurement": "N-mer (weight-averaged molecular weight / monomer molecular weight)", "setting": "[1]", "result": 1.8}, {"measurement": "weight-averaged molecular weight", "setting": "[2]", "result": 9120, "unit": "g/mol"}]}
{"binder": "B1", "values": [{"measurement": "N-mer (weight-averaged molecular weight / monomer molecular weight)", "setting": "[3]", "result": 2.2}, {"measurement": "weight-averaged molecular weight", "setting": "[4]", "result": 12900, "unit": "g/mol"}]}
{"binder": "B2", "values": [{"measurement": "N-mer (weight-averaged molecular weight / monomer molecular weight)", "setting": "[5]", "result": 2.1}, {"measurement": "weight-averaged molecular weight", "setting": "[6]", "result": 11700, "unit": "g/mol"}]}
{"binder": "AVSKVLHLEGEVNKIKSALLSTNKAVVSLSNGVSVLTSKVLDLKNYIDKQ (modifications not checked)", "note": "[T1772]", "values": [{"measurement": "weight-averaged molecular weight", "setting": "[7]", "result": 12900, "unit": "Da"}, {"measurement": "N-mer (weight-averaged molecular weight / monomer molecular weight)", "setting": "[8]", "result": 2.4}, {"measurement": "weight-averaged molecular weight", "setting": "[9]", "result": 12900, "unit": "g/mol"}]}
{"binder": "VLHLEGEVNKIKSALLSTNKAVVSLSNGVSVLTSKVLDLKNYIDK (modifications not checked)", "note": "[T1582]", "values": [{"measurement": "N-mer (weight-averaged molecular weight / monomer molecular weight)", "setting": "[10]", "result": 1.5}, {"measurement": "weight-averaged molecular weight", "setting": "[11]", "result": 7520, "unit": "g/mol"}]}
{"binder": "VFPSDEFDASISQVNEKINQSLAFIRKSDELLHNV (modifications not checked)", "note": "[T112]", "values": [{"measurement": "weight-averaged molecular weight of the mixture", "setting": "[12]", "result": "15300 Da and 22000 Da and 17300 Da"}, {"measurement": "weight-averaged molecular weight of the mixture", "setting": "[13]", "result": 21100, "unit": "Da"}, {"measurement": "weight-averaged molecular weight", "setting": "[14]", "result": 3980, "unit": "Da"}, {"measurement": "helicity of the peptide mixture", "setting": "[15]", "result": 86, "unit": "%"}, {"measurement": "melting temperature (Tm) of the peptide mixture", "setting": "[16]", "result": 87, "unit": "° C."}]}
{"binder": "DEFDASISQVNEKINQSLAFIRKSDELL (modifications not checked)", "note": "[T67]", "values": [{"measurement": "binding affinity", "setting": "[17]", "result": 5, "unit": "nM"}, {"measurement": "fold lower binding affinity than T112", "setting": "[18]", "result": 5, "unit": "fold"}]}
